Drawing on PMC3457997, this text covers stoichiometry N for two substances.

Experiment [1] deals with CD95(1–66)-mCherry (human). The experiment can be described thus: SEC; concentrated serum-free supernatants of transfected HEK cells on Sephacryl S-300 and S-200 High Resolution columns in PBS, 0.5 mL/min; fractions analysed by immunoblot with anti-DsRed.
Experiment [2] deals with CD95(1–158)-mCherry (human). The description is as above.

In the case of CD95(1–66)-mCherry (domain or fragment), the stoichiometry N in experiment [1] turned out to be 2.

Take “CD95(1–158)-mCherry (domain or fragment)”: the stoichiometry N in experiment [2] came out at 3.

By stoichiometry N is commonly meant a count of units in the complex or per binding partner.
